Test results as given in patent US20010010923A1, “MODIFIED CARBOXYPEPTIDASE” (priority 1997, published 2001).
Changes are numbered by the printed parent chain. Numbers in names are those of the source. Entries after “also recorded” stand apart in the source; their conditions may differ. Marks after values point to notes of the source that are not given here.

B1: M398E: carboxypeptidase Y S1' mutant, substitution M398E (protein, UniProt P00729 112-532, looked up, variant M398E)
Carboxypeptidase Y: KIKDPKILGIDPNVTQYTGYLDVEDEDKHFFFWTFESRNDPAKDPVILWLNGGPGCSSLTGLFFELGPSSIGPDLKPIGNPYSWNSNATVIFLDQPVNVGFSYSGSSGVSNTVAAGKDVYNFLELFFDQFPEYVNKGQDFHIAGESYAGHYIPVFASEILSHKDRNFNLTSVLIGNGLTDPLTQYNYYEPMACGEGGEPSVLPSEECSAMEDSLERCLGLIESCYDSQSVWSCVPATIYCNNAQLAPYQRTGRNVYDIRKDCEGGNLCYPTLQDIDDYLNQDYVKEAVGAEVDHYESCNFDINRNFLFAGDWMKPYHTAVTDLLNQDLPILVYAGDKDFICNWLGNKAWTDVLPWKYDEEFASQKVRNWTASITDEVAGEVKSYKHFTYLRVFNGGHEVPFDVPENALSMVNEWIHGGFSL
B2: M398C: carboxypeptidase Y S1' mutant, substitution M398C (protein, UniProt P00729 112-532, looked up, variant M398C)
Carboxypeptidase Y: B1 Carboxypeptidase Y with E398C
B3: T60M: carboxypeptidase Y S1' mutant, substitution T60M (protein, UniProt P00729 112-532, looked up, variant T60M)
Carboxypeptidase Y: B1 Carboxypeptidase Y with T60M, E398M
B4: M398Y: carboxypeptidase Y S1' mutant, substitution M398Y (protein, UniProt P00729 112-532, looked up, variant M398Y)
Carboxypeptidase Y: B1 Carboxypeptidase Y with E398Y
B5: M398N: carboxypeptidase Y S1' mutant, substitution M398N (protein, UniProt P00729 112-532, looked up, variant M398N)
Carboxypeptidase Y: B1 Carboxypeptidase Y with E398N
B6: M398F: carboxypeptidase Y S1' mutant, substitution M398F (protein, UniProt P00729 112-532, looked up, variant M398F)
Carboxypeptidase Y: B1 Carboxypeptidase Y with E398F
B7: T60F + M398F: carboxypeptidase Y double substitution mutant T60F + M398F (protein, UniProt P00729 112-532, looked up, variant T60F M398F)
Carboxypeptidase Y: B1 Carboxypeptidase Y with T60F, E398F
B8: T60L: carboxypeptidase Y S1' mutant, substitution T60L (protein, UniProt P00729 112-532, looked up, variant T60L)
Carboxypeptidase Y: B1 Carboxypeptidase Y with T60L, E398M
B9: T60V: carboxypeptidase Y S1' mutant, substitution T60V (protein, UniProt P00729 112-532, looked up, variant T60V)
Carboxypeptidase Y: B1 Carboxypeptidase Y with T60V, E398M
B10: T60W: carboxypeptidase Y S1' mutant, substitution T60W (protein, UniProt P00729 112-532, looked up, variant T60W)
Carboxypeptidase Y: B1 Carboxypeptidase Y with T60W, E398M
B11: N51Q + M398L: carboxypeptidase Y mutant N51Q + M398L (protein, UniProt P00729 112-532, looked up, variant N51Q M398L)
Carboxypeptidase Y: B1 Carboxypeptidase Y with N51Q, E398L

test: Transpeptidation of FA-Ala-Xaa-OH with H-Gly-NH2, Table 2; assay type: biochemical; conditions: FA-Ala-Ala-OH 0.2 mM; 1.9 M H-Gly-NH2; pH 7.5; room temperature
Procedure: (§1) Transamidation reactions were carried out generally as described in PCT Application WO 95/20039. In general, the method included dissolving the nucleophile (H-Leu-NH2, unless otherwise indicated) in 50 mM HEPES, 5 mM EDTA and adjusting the pH to 7.5, 5 μl of peptide substrate (8 mM Bz-G-A-R-A-R-A-OH, unless otherwise indicated, in methanol) was added to 190 μl nucleophile solution followed by 5 μl enzyme, resulting in a substrate concentration of 0.2 mM.
(§2) During the reaction, 20 μl aliquots were removed from the reaction mixture and added to 50 μl 1% trifluoroacetic acid to quench the reaction. The reactant composition was determined by HPLC using a Waters HPLC equipped with a C-18 Waters Novapac 4μ reverse phase column and various gradients of acetonitrile in 0.1% trifluoroacetic acid. The separation was monitored at 254 nm allowing the direct quantification of the products from the integrated peak areas. The composition of the reaction mixture was determined at least twvice during the reaction, the first when 20-50% (preferably 35%) of the substrate had been consumed in the reaction and the second time when 50-90% (preferably 80%) of the peptide substrate had been consumed.
(§3) The fraction of aminolysis (fa) was expressed as the ratio between the formed aminolysis product and the sum of all products formed. Unconsumed substrate was disregarded in the calculations.
Site specific mutagenesis was performed as described for Example 1 to produce the S1 mutants used below.
Transamidation reactions were performed as described for Example 1.

Row | Molecule | Fraction of aminolysis (fa), P1' Ala
1 | B1 | 0.92
2 | B2 | 0.93
3 | B3 | 0.78
4 | B4 | 0.90
5 | B5 | 0.92
6 | B6 | 0.87
7 | B7 | 0.86
8 | B8 | 0.91
9 | B9 | 0.94
10 | B10 | 0.93

same assay, conditions: FA-Ala-Leu-OH 0.2 mM; 1.9 M H-Gly-NH2; pH 7.5; room temperature

Row | Molecule | Fraction of aminolysis (fa), P1' Leu
11 | B1 | 0.84
12 | B2 | 0.75
13 | B3 | 0.03
14 | B4 | 0.90
15 | B5 | 0.36
16 | B6 | 0.85
17 | B7 | 0.86
18 | B8 | 0.13
19 | B9 | 0.15
20 | B10 | 0.45

same assay, conditions: FA-Ala-Met-OH 0.2 mM; 1.9 M H-Gly-NH2; pH 7.5; room temperature

Row | Molecule | Fraction of aminolysis (fa), P1' Met
21 | B1 | 0.74
22 | B2 | 0.65
23 | B3 | 0.01
24 | B4 | 0.90
25 | B5 | 0.70
26 | B6 | 0.86
27 | B7 | 0.82
28 | B8 | 0.08
29 | B9 | 0.17
30 | B10 | 0.49

same assay, conditions: FA-Ala-Phe-OH 0.2 mM; 1.9 M H-Gly-NH2; pH 7.5; room temperature

Row | Molecule | Fraction of aminolysis (fa), P1' Phe
31 | B1 | 0.71
32 | B2 | 0.64
33 | B3 | 0.18
34 | B4 | 0.92
35 | B5 | 0.11
36 | B6 | 0.85
37 | B7 | 0.66
38 | B8 | 0.24
39 | B9 | 0.08
40 | B10 | 0.47

same assay, conditions: FA-Ala-Val-OH 0.2 mM; 1.9 M H-Gly-NH2; pH 7.5; room temperature

Row | Molecule | Fraction of aminolysis (fa), P1' Val
41 | B1 | 0.82
42 | B2 | 0.52
43 | B3 | 0.15
44 | B4 | 0.89
45 | B5 | 0.52
46 | B6 | 0.83
47 | B7 | 0.73
48 | B8 | 0.17
49 | B9 | 0.29
50 | B10 | 0.39

same assay, conditions: larger, hydrophobic leaving group such as leucine

Row | Molecule | fraction of aminolysis compared to wild type, in words
51 | B1 | improvement in fraction of aminolysis obtained; also recorded: most dramatic improvement; also recorded: enhanced transpeptidation
52 | B2 | improvement in fraction of aminolysis obtained; also recorded: most dramatic improvement; also recorded: enhanced transpeptidation
53 | B4 | improvement in fraction of aminolysis obtained; also recorded: most dramatic improvement; also recorded: enhanced transpeptidation
54 | B5 | improvement in fraction of aminolysis obtained; also recorded: enhanced transpeptidation
55 | B6 | improvement in fraction of aminolysis obtained; also recorded: most dramatic improvement; also recorded: enhanced transpeptidation
56 | B7 | further improved the fraction of aminolysis
57 | B10 | improvement in fraction of aminolysis obtained; also recorded: most effective at increasing the fraction of aminolysis

test: Transpeptidation of FA-Ala-OBzl with H-Leu-NH2, Table 3; assay type: biochemical; conditions: FA-Ala-OBzl 0.2 mM; H-Leu-NH2; pH 7.5
Procedure: as §1, §2, §3
Site specific mutagenesis was performed as described in Example 1 to produce the specific substitution mutants described below. Transamidation reactions were performed as described for Example 1.
In table 3, below, KN(app) represents the nucleophile concentration at which fa is half of the maximum value (a measure for the dissociation constant of the nucleophile). famax is the highest possible fa obtained at saturation of the enzyme with the nucleophile.
KN(app) indicates the concentration at which famax/2 is reached and thus describes the apparent binding constant of the nucleophile. Because the competing hydrolysis reaction is thought to occur while the leaving group remains attached to the to the acyl-enzyme intermediate, a low KN(app) is preferred.

Row | Molecule | fa
58 | B1 | 0.97^a
59 | B2 | 0.95^a
60 | B3 | 0.98^b
61 | B4 | 0.78^b
62 | B5 | 0.83^a
63 | B6 | 0.96^a
64 | B8 | 1.0^b
65 | B9 | 0.97^a
66 | B10 | 0.96^a

same assay, conditions: compared with wild type, Table 3

Row | Molecule | change in famax and KN(app), in words
67 | B1 | increase in famax while decreasing KN(app)
68 | B3 | increase in both famax and KN(app)
69 | B6 | increase in both famax and KN(app)
70 | B8 | increase in both famax and KN(app)
71 | B9 | increase in both famax and KN(app)
72 | B10 | increase in both famax and KN(app)

same assay, conditions: nucleophile H-Leu-NH2 concentration at which fa is half of maximum; FA-Ala-OBzl 0.2 mM; pH 7.5

Row | Molecule | KN(app)
73 | B1 | 0.93^a mM
74 | B2 | 0.74^b mM
75 | B4 | 5.2^c mM
76 | B5 | 1.2^c mM
77 | B6 | 2.3^b mM

test: Transpeptidation of Bz-G-A-R-A-R-X-OH at pH 7.5 at 50% substrate consumption, Table 4; assay type: biochemical; set-up: key to fa: fraction: aminolysis product / sum of all products formed; conditions: leaving group A, 375 mM H-Leu-NH2
Procedure: as §1, §2, §3
Site specific mutagenesis was performed as described for Example 1 to generate the specific mutants described below. Transamidation reactions were performed as described for Examples 1.

Row | Molecule | Pmax (peak product yield)
78 | B11 | >0.07

same assay, conditions: leaving group A, 50% substrate consumption, 375 mM H-Leu-NH2

Row | Molecule | fa
79 | B11 | 0.18

same assay, conditions: leaving group A, 50% substrate consumption, 375 mM H-Leu-NH2, 2 mM substrate, [E] 0.1 mg/mL

Row | Molecule | t
80 | B11 | 3200 min

same assay, conditions: leaving group L, 375 mM H-Leu-NH2

Row | Molecule | Pmax (peak product yield)
81 | B11 | >0.04

same assay, conditions: leaving group L, 50% substrate consumption, 375 mM H-Leu-NH2

Row | Molecule | fa
82 | B11 | 0.10

same assay, conditions: leaving group L, 50% substrate consumption, 375 mM H-Leu-NH2, 2 mM substrate, [E] 0.1 mg/mL

Row | Molecule | t
83 | B11 | 3500 min
